Local ventricular effective refractory period (ERP) data for 1 substance are collected here from patent US20050008628A1.

This assay concerns the target mutant voltage gated potassium channel (Kv1.3). The assay is described as follows: cell-based or functional assay.

In turn, “Margatoxin (from UniProt P40755 1-39) (peptide)” came in with a local ventricular effective refractory period (ERP) at graft site after MTx, one rat (170 ms before MTx) of 100 ms.
